# Values quoted from earlier work, collected in patent US20250177452A1, “USE OF IMMUNOSUPPRESSION TO ENABLE ENGRAFTMENT OF HEMATOPOIETIC STEM CELLS” (The Board of Trustees of the Leland Stanford Junior …, priority 2022, published 2025).
# Experiments:
# [1] = biological target: T1, CD52 (Homo sapiens, UniProt P31358); settings: single injection
# T1 construct: CD52 is expressed on 95% of peripheral blood lymphocytes, monocytes and thymocytes; host or cells: endogenous CD52 on peripheral blood lymphocytes in vivo
# [2] = in vivo
Molecule,depletion of lymphocytes [1],maximum tolerated dose (MTD) [2]
Alemtuzumab: recombinant humanized monoclonal antibody against CD52,over 99%,–
"IMGN901: CD56-targeting antibody-drug conjugate delivering the cytotoxic maytansinoid DM1 (conjugate, chains of the INN, looked up, DM1 maytansinoid payload, CD56-targeting antibody-drug conjugate delivering the cytotoxic maytansinoid DM1) VH: QVQLVESGGGVVQPGRSLRLSCAASGFTFSSFGMHWVRQAPGKGLEWVAYISSGSFTIYYADSVKGRFTISRDNSKNTLYLQMNSLRAEDTAVYYCARMRKGYAMDYWGQGTLVTVSS VL: DVVMTQSPLSLPVTLGQPASISCRSSQIIIHSDGNTYLEWFQQRPGQSPRRLIYKVSNRFSGVPDRFSGSGSGTDFTLKISRVEAEDVGVYYCFQGSHVPHTFGQGTKVEIK",–,about 75 mg/m^2
